{
  "source": "paper doi:10.1101/2025.10.15.682582",
  "key": {"[1]": {"biological_target": "Noregen, recombinant norrin-derived growth factor (human) (UniProt Q00604)", "assay": "intact LC/ES-MS"}, "[2]": {"biological_target": "Noregen, recombinant norrin-derived growth factor (human) (UniProt Q00604)", "assay": "AUC"}},
  "data": [
    {"substance": "Noregen, recombinant norrin-derived growth factor (from UniProt Q00604 25-133) (ligand)", "values": [
      {"measurement": "percent present as dimer", "setting": "[1]", "value": 98, "unit": "%"},
      {"measurement": "stoichiometry N", "setting": "[1]", "value": 2},
      {"measurement": "percent of total content in the dimer peak", "setting": "[2]", "value": 99.9, "unit": "%"},
      {"measurement": "stoichiometry N", "setting": "[2]", "value": 2}
    ]}
  ]
}
